Source: paper PMC6438714

Target: DyLight488-METTL14 (UniProt Q9HCE5)
Assay: MST

UniProt Q9HCE5, sequence (Q9HCE5 whole entry): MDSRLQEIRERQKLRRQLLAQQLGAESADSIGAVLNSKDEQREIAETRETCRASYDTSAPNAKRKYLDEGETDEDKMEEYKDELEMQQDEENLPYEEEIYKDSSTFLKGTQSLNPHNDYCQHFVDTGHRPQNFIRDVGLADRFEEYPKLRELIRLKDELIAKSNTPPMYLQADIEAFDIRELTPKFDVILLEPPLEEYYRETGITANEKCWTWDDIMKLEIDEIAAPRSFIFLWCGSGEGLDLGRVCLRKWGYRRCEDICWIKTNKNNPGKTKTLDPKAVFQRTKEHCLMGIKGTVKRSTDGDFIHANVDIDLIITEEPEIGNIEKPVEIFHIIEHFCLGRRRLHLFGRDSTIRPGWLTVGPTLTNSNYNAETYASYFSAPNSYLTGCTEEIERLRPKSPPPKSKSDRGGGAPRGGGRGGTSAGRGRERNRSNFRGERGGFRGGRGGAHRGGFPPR

Kd: 1860 nM
Substance: full length H3K36me3 (from UniProt P68431 1-136) (natural protein)
